# Reference: US20140187615, “THERAPEUTIC POLYNUCLEOTIDES, COMPOSITIONS, AND METHODS” (Regents of the University of Minnesota, published 2014)
# T1: phospholamban (PLN), pentameric (UniProt P61015)
# T1 sequence: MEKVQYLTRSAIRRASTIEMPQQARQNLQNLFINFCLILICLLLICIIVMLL
# T2: phospholamban (PLN), pentameric (UniProt P61015 P61015:1-52)
# T2 sequence: T1 sequence
# Key:
# [1] = target: T1, phospholamban (PLN), pentameric; test: FP; conditions: ACE Kd 0.5 ± 0.1 nM; also gel shift (FIG. 1C); MOPS, 0.1% C12E8, 1 mM MgCl2, 5 mM CaCl2, pH 7.0
# [2] = target: T2, phospholamban (PLN), pentameric; test: FP; ACE Kd 6.5 ± 0.9 nM; MOPS, 0.1% C12E8, 1 mM MgCl2, 5 mM CaCl2, pH 7.0; conditions: chain copies: 5 (stated pentameric); label: 5'-FAM
# [3] = target: T2, phospholamban (PLN), pentameric; test: FP; ACE Kd 80 ± 40 nM; MOPS, 0.1% C12E8, 1 mM MgCl2, 5 mM CaCl2, pH 7.0; conditions: chain copies: 5 (stated pentameric); label: 5'-FAM
# [4] = target: T2, phospholamban (PLN), pentameric; test: FP; ACE Kd 1.2 ± 0.4 nM; MOPS, 0.1% C12E8, 1 mM MgCl2, 5 mM CaCl2, pH 7.0; conditions: chain copies: 5 (stated pentameric); label: 5'-FAM
# [5] = target: T2, phospholamban (PLN), pentameric; test: FP; ACE Kd 24 ± 5 nM; MOPS, 0.1% C12E8, 1 mM MgCl2, 5 mM CaCl2, pH 7.0; conditions: chain copies: 5 (stated pentameric); label: 5'-FAM
# [6] = target: T2, phospholamban (PLN), pentameric; test: FP; ACE Kd 260 ± 180 nM; MOPS, 0.1% C12E8, 1 mM MgCl2, 5 mM CaCl2, pH 7.0; conditions: chain copies: 5 (stated pentameric); label: 5'-FAM
molecule,measurement,setting,value
NNNNNNNNNNNNNNNNNNNNNNNNNNNNNNNNNNNNNNNNNNNNNNNNNNNNNNNNNNNNNNNNNNNNNNNNNNNNNNNN [ssDNA random 80-mer],Kd,[1],3.1 nM
AGCAGCACAGAGGTCAGATG (ssDNA) [ssDNA 20-mer],Kd,[2],1.8 nM
AGTGATAGCTATGGT (ssDNA) [ssDNA 15-mer],Kd,[3],3.1 nM
AGCAGCACAGAGGTCAGATGCAGGTAGGGTCCTATGCGTGCTACCGTGAA (ssDNA) [ssDNA 50-mer],Kd,[4],5 nM
ACTGAGCATGGGATAACCGTTCTCAGACTT (ssDNA) [ssDNA 30-mer],Kd,[5],21 nM
ATAGCTTGCA (ssDNA) [ssDNA 10-mer],Kd,[6],35 nM
